Paper PMC8597880

Assays:
Assay in all cases: BLI
[1] = biological target: recombinant SARS-CoV-2 RBD B.1.1.7/N501Y (SARS-CoV-2, Alpha (B.1.1.7) RBD with N501Y)
[2] = biological target: recombinant SARS-CoV-2 RBD B.1.351/K417N, E484K, N501Y (SARS-CoV-2, B.1.351 (Beta), RBD K417N, E484K, N501Y)
[3] = biological target: recombinant SARS-CoV-2 RBD B.1.617.2/L452R, T478K (SARS-CoV-2, B.1.617.2 (Delta), RBD L452R, T478K)
[4] = biological target: recombinant SARS-CoV-2 RBD P.1/K417T, E484K, N501Y (SARS-CoV-2, P.1 (Gamma), RBD K417T, E484K, N501Y)

Question: For NIH-CoVnb-112 (VHH), which Kd [1] is on record?
Answer: Its Kd is 3 nM.

Question: What about the Kd [2] of the same substance?
Answer: Its Kd is 4.28 nM.

Question: What about the Kd [3] of the same substance?
Answer: Its Kd is 1.66 nM.

Question: What about the Kd [4] of the same substance?
Answer: Its Kd is 4.16 nM.
